According to PMC7925690, “A molecular switch in sulfur metabolism to reduce arsenic and enrich selenium in rice grain” (Nature Communications, 2021):

Assays:
[1] = molecular target: T1, OsASTOL1 (Oryza sativa, UniProt Q9XEA6); assay: microscale thermophoresis, RED-tris-NTA labelled His-tagged protein; format: binding
T1 construct: gene RCS1; mature form, N-terminal 87 residues (first 261 bp) deleted; C-terminal His tag (pET-29a NdeI/XhoI); E. coli BL21(DE3); Ni-NTA; dimer by SEC

[2] = molecular target: T2, AtOAS-TL A (Arabidopsis thaliana, UniProt P47998); assay: as above; format: binding
T2 construct: gene OASA1; full-length ORF, C-terminal His tag (pET-29a NdeI/XhoI); E. coli BL21(DE3); Ni-NTA

[3] = molecular target: mature OsASTOL1 protein (untagged) (rice (Oryza sativa cv. Kasalath)) (UniProt Q9XEA6); assay: SEC; HiLoad 16/60 Superdex 200 prep grade, 20 mM Tris-HCl, 150 mM NaCl, pH 7.5, 1 ml/min; 1 mg protein in 1 ml injected; molecular weight from a calibration curve
[4] = molecular target: mature OsASTOL1^S189N protein (untagged) (rice (Oryza sativa cv. Kasalath)) (UniProt Q9XEA6); assay: as above
[5] = molecular target: T3, AtOAS-TL A-His (Arabidopsis thaliana, UniProt P47998 1-322, labeled with RED-tris-NTA 2nd Generation Dye); assay: MST; His-tagged OAS-TL labeled with RED-tris-NTA 2nd Generation Dye (100 µM as printed) with a serial dilution of the AtSAT5C10 peptide; PBS pH 7.6, 0.05% Tween 20; Monolith NT.115; conditions: both partners purified
T3 construct: Arabidopsis thaliana cytosolic O-acetylserine(thiol)lyase A; ORF without the stop codon; Cloned into the NdeI/XhoI sites of pET-29a; also called His-tagged AtOAS-TL A; source: E. coli BL21 (DE3), purified (Ni-NTA); not shown: His, C-terminal, kept

[6] = molecular target: T4, AtOAS-TL A^S102N-His (Arabidopsis thaliana, UniProt P47998 1-322, S102N, labeled with RED-tris-NTA 2nd Generation Dye); assay: as above; conditions: both partners purified
T4 construct: Arabidopsis thaliana cytosolic O-acetylserine(thiol)lyase A, site-directed mutant; ORF without the stop codon; Cloned into the NdeI/XhoI sites of pET-29a; also called His-tagged AtOAS-TL A^S102N; source: E. coli BL21 (DE3), purified (Ni-NTA); not shown: His, C-terminal, kept
T4 sequence (P47998 whole entry S102N): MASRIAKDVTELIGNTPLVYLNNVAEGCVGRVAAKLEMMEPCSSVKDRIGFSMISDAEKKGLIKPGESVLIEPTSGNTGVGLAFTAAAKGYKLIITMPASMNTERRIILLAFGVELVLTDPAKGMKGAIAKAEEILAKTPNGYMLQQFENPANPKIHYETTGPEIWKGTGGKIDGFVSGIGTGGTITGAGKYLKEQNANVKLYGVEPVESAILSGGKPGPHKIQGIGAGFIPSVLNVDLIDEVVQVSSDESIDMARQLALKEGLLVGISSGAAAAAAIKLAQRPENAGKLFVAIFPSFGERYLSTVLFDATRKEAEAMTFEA

T1 sequence (Q9XEA6 whole entry): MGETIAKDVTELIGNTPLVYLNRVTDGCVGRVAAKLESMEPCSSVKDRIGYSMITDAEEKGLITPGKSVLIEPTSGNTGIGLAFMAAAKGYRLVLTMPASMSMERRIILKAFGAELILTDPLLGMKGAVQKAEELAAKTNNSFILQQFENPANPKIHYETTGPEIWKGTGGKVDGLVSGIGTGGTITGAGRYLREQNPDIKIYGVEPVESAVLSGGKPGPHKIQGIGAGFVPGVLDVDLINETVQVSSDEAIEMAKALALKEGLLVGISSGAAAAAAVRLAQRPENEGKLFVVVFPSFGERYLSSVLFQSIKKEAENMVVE
T3 sequence (P47998 whole entry): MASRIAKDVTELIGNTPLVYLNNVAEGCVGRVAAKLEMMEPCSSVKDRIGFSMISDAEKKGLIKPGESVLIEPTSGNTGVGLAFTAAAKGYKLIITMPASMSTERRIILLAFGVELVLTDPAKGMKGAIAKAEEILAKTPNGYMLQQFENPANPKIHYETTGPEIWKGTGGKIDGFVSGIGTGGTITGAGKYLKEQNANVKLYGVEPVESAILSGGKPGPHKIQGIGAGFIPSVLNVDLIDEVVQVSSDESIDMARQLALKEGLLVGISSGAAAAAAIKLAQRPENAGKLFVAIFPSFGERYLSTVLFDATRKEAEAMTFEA
T2 sequence (P47998 whole entry): as above

CC(=O)OC[C@H](N)C(=O)O [OAS]
Kd [1]: 1.47 ± 2.42 nM
Kd [2]: 13.1 ± 4.83 nM

mature OsASTOL1 protein (untagged) (from UniProt Q9XEA6 88-321) (enzyme)
stoichiometry N [3]: 2

mature OsASTOL1^S189N protein (untagged) (from UniProt Q9XEA6 88-321) (enzyme)
stoichiometry N [4]: 2

B1: AtSAT5C10 peptide (peptide)
peptide: FISEWSDYII
notes: Ten C-terminal residues of Arabidopsis thaliana serine acetyltransferase 5 (AtSAT5), AT5G56760; also called C-terminal fragment of SAT5; AtSAT5C10 fragment; source: synthetic peptide (GenScript Biotech, Nanjing)
binding result [5]: binds
binding result [6]: binds
